According to US20110239331A1:

Key:
[1] = biological target: bee brain calcium channels (Apis mellifera brain neurons, ICa) (Apis mellifera); assay: cell-based or functional assay
[2] = biological target: mouse trigeminal (sensory) neuron calcium channels (ICa) (mouse); assay: cell-based or functional assay

omega-atracotoxin-Hv2a (peptide) was tested, and the EC50 for inhibition of ICa [1] was 150 pM and the preference for insect versus vertebrate calcium channels (against m4) [1] was greater than 50000 fold.
Substance “ω-agatoxin-IVA (from UniProt P30288 1-48) (peptide)” has an EC50 for inhibition of ICa in bee neurons [1] of 10 nM, a preference for insect versus vertebrate calcium channels (against m4) [1] of 2 fold and an EC50 for inhibition of a component of ICa in mouse sensory neurons [2] of 20 nM. The maximum ICa inhibition in mouse sensory neurons [2] was 40%.
